Experimental data from the supplement of paper PMC9732359.
± gives the uncertainty stated by the source.

Assay: protein stability index of a GFP-peptide fusion (yeast GPS) (PSI 1-4); higher = more stable; sorted into four equal gates, so the index is relative within each strain
Method in brief: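 The protein stability index of a peptide was calculated by multiplying its read frequency in each gate by that gate's number and adding the products. The peptides were tiled 17-residue stretches of yeast proteins, fused downstream of GFP on a Cherry-expressing plasmid and carried in yeast as a pooled library. Mid-log cultures in leucine-free medium were sorted into four equal gates by GFP/Cherry ratio, and each gate's plasmids were PCR-amplified and Illumina-sequenced.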

Row | Sequence | protein stability index (doa10∆) | protein stability index (pdr5∆) | protein stability index (san1∆) | protein stability index (ubr1∆)
1 | NLVVSGPPQSLYGLNLT [FAS1] | 2.69 ± 0.071 | 2.35 ± 0.059 | 2.51 ± 0.075 | 2.45 ± 0.043
2 | SLGDGTNYYLTTARNDL [CSL4] | 2.66 ± 0.068 | 2.71 ± 0.068 | 2.83 ± 0.049 | 2.91 ± 0.1
3 | SLEHELKRSTELLETVS [YIL149C/MLP2] | 2 ± 0.057 | 2.21 ± 0.054 | 2.25 ± 0.071 | 2.17 ± 0.037
4 | YIQERLKSLNDIETQLC [MED11] | 2.83 ± 0.083 | 2.68 ± 0.091 | 2.77 ± 0.1 | 2.8 ± 0.07
5 | IADLASLEQLLGMMYEQ [YCS4] | 3.18 ± 0.1 | 2.6 ± 0.067 | 2.6 ± 0.074 | 2.65 ± 0.031
6 | IVSKSIEMYVQEASKQY [RPN2] | 2.53 ± 0.087 | 2.98 ± 0.1 | 1.54 ± 0.088 | 2.68 ± 0.1
7 | VTVDQYVNVAISIYNML [SSN2] | 1.72 ± 0.057 | 1.88 ± 0.062 | 1.52 ± 0.12 | 1.44 ± 0.052
8 | KTLEKLESTIAETQGSK [IRR1] | – | – | 1.39 ± 0.27 | –
9 | SVLRDTLVAQNLKQANN [SMC4] | 2.68 ± 0.082 | 2.53 ± 0.06 | 2.48 ± 0.052 | 2.33 ± 0.035
10 | DSESESGDKEATAPLIQ [RPN8] | 3.44 ± 0.19 | 3.44 ± 0.12 | 3.28 ± 0.093 | 3.49 ± 0.28
11 | KAEYVDQYDAERDFYHS [RPO31] | 2.75 ± 0.061 | 2.97 ± 0.1 | 3.23 ± 0.097 | 3.16 ± 0.06
12 | KENDTVMNTKLLQEGGS [ESC2] | 3.16 ± 0.12 | 3.2 ± 0.092 | 3.04 ± 0.078 | 3.21 ± 0.076
13 | FLRTMKLTSEETVFNYR [GRR1] | 3.11 ± 0.066 | 2.81 ± 0.067 | 3 ± 0.06 | 3.02 ± 0.052
14 | MDFANLWVFQAFTCFCI [SRB8] | 1.55 ± 0.054 | 1.2 ± 0.043 | 1.16 ± 0.08 | 1.21 ± 0.042
15 | SSEALEAARICANKYMT [RPL10] | 1.35 ± 0.13 | 1.82 ± 0.16 | 1.36 ± 0.19 | 1.29 ± 0.11
16 | RSPLVTPMDESSYDLLF [SRP72] | 2.71 ± 0.13 | 3.06 ± 0.1 | 3.29 ± 0.12 | 3.2 ± 0.08
17 | MTRILPQQSRYISFIKD [RPN2] | 2.16 ± 0.057 | 2.6 ± 0.057 | 1.87 ± 0.067 | 1.92 ± 0.053
18 | TEISPMAGSQFENGNIT [RRP45] | 2.6 ± 0.063 | 2.5 ± 0.05 | 2.86 ± 0.058 | 2.71 ± 0.062
19 | LQNNINNSNNNNIIRIQ [SNF11] | 2.94 ± 0.089 | 2.57 ± 0.13 | 2.87 ± 0.069 | 3.32 ± 0.089
20 | GATSKPAFSFGAKPEEK [YJL041W/NSP1] | 3.05 ± 0.098 | 3.4 ± 0.092 | 3.31 ± 0.074 | 3.11 ± 0.073
21 | ASISLAIGYPTLPSVGH [RPP0] | 2.66 ± 0.075 | 2.73 ± 0.059 | 2.86 ± 0.11 | 2.62 ± 0.049
22 | ADLQGSEDHSFRKIKLR [RPS1A] | 3.17 ± 0.051 | 3.13 ± 0.061 | 3.06 ± 0.047 | 3.15 ± 0.048
23 | SNTSTLKNMLYVLSTAV [BRR2] | 1.57 ± 0.066 | 1.53 ± 0.09 | 1.17 ± 0.18 | 1.38 ± 0.059
24 | RMSIKLLRLASKSTSMK [POP1] | 2.49 ± 0.043 | 2.6 ± 0.047 | 2.48 ± 0.053 | 2.56 ± 0.04
25 | TGLSQIPNRRFTLWWSP [PRP8] | 3.04 ± 0.058 | 2.78 ± 0.056 | 1.87 ± 0.048 | 2.52 ± 0.042
26 | LVEEFMLLANISVARKI [DIS3] | 1.3 ± 0.062 | 1.84 ± 0.092 | 1.77 ± 0.16 | 2.18 ± 0.055
27 | LNAITLDGDRADKRGVL [SMC3] | 2.94 ± 0.15 | 3.1 ± 0.17 | – | 3.03 ± 0.097
28 | YLEELERKKQSDVLRFL [RPL15B] | 1.34 ± 0.16 | 2.23 ± 0.22 | 1.44 ± 0.25 | 1.54 ± 0.1

Row | Sequence | protein stability index (doa10∆) | protein stability index (pdr5∆) | protein stability index (san1∆) | protein stability index (ubr1∆)
29 | AIFNNEFDSDDDDISDD [RPN4] | 3.12 ± 0.1 | 2.16 ± 0.19 | – | 3.19 ± 0.21
30 | RIKNEQSALSQIIRLFY [ISW2] | 3.08 ± 0.1 | 3.09 ± 0.1 | 2.76 ± 0.076 | 3.06 ± 0.073
31 | NRWHSESWANQLTVCGA [FAS2] | 1.93 ± 0.04 | 1.87 ± 0.053 | 1.8 ± 0.086 | 1.86 ± 0.042
32 | DDDIEKQEQEEKIKSKK [YCG1] | 3.08 ± 0.067 | 2.99 ± 0.056 | 3.01 ± 0.052 | 3.14 ± 0.049
33 | KDLSNYRKTEGIFEKAK [YMR153W/NUP53] | 3.01 ± 0.11 | 2.75 ± 0.1 | 3.04 ± 0.1 | 2.74 ± 0.086
34 | AEASGEAADEADEADEE [RPS9A] | 3.35 ± 0.23 | 3.03 ± 0.28 | 3.01 ± 0.15 | 3.45 ± 0.12
35 | RLNFNQNSSKIVNVLSK [SWI3] | 2.56 ± 0.057 | 2.7 ± 0.051 | 3.04 ± 0.048 | 2.93 ± 0.042
36 | FAADGDALVKRFKNSVK [PRE7] | 2.64 ± 0.28 | – | – | –
37 | TNAFLDSLTRAVKDQQK [SNF2] | 2.46 ± 0.072 | 2.47 ± 0.071 | 2.68 ± 0.049 | 2.56 ± 0.046
38 | ILYTSKIVFILDSDSEN [RRI2] | 1.76 ± 0.065 | 1.88 ± 0.047 | 1.43 ± 0.09 | 1.71 ± 0.037
39 | IQRLRLLREKQRVRNMR [YOR098C/NUP1] | – | 1.28 ± 0.086 | – | 1.41 ± 0.26
40 | DFNMKLAINAKTITSGL [RPB2] | 2.99 ± 0.087 | 3.06 ± 0.086 | 2.76 ± 0.061 | 2.99 ± 0.05
41 | HELREKERISVAAASKI [PRE2] | 2.67 ± 0.061 | 2.77 ± 0.049 | 2.79 ± 0.062 | 2.22 ± 0.03
42 | IQLQEFLLSAMTMASKS [NSL1] | 1.5 ± 0.058 | 1.83 ± 0.1 | 1.81 ± 0.09 | 1.93 ± 0.059
43 | IKQTSDESTIKRIKPNT [ECM29] | 3 ± 0.073 | 3 ± 0.068 | 2.85 ± 0.048 | 2.94 ± 0.059
44 | SANPKKTTITRVEPETF [SWI3] | 2.86 ± 0.065 | 3.06 ± 0.068 | 3.03 ± 0.052 | 2.95 ± 0.051
45 | PRLDAQAIKEASYVNIP [RPS0B] | 2.88 ± 0.041 | 2.84 ± 0.039 | 2.79 ± 0.044 | 2.52 ± 0.031
46 | QDPIFGSVLLTLLNFVS [ECM29] | 1.63 ± 0.049 | 1.42 ± 0.052 | 1.5 ± 0.098 | 1.41 ± 0.063
47 | MSFSSLYKTFFKRNAVF [QCR9] | 1.67 ± 0.066 | 1.33 ± 0.053 | 1.34 ± 0.091 | 1.32 ± 0.048
48 | QRVFDETEQEYSPSNEI [YDL116W/NUP84] | 3.28 ± 0.067 | 3.46 ± 0.069 | 3.21 ± 0.058 | 3.29 ± 0.043
49 | PPKEGNYEIVFDTVSNK [YMR129W/POM152] | 3.11 ± 0.086 | 3.13 ± 0.095 | 3.29 ± 0.26 | 3 ± 0.1
50 | YNRRQDKKNKRLKFGHR [SNF2] | 3.01 ± 0.092 | 3.14 ± 0.09 | 3.22 ± 0.093 | 3.09 ± 0.095
51 | RAEAKAQGVAVQLKRQP [RPL21A] | 2.75 ± 0.096 | 2.19 ± 0.08 | 1.71 ± 0.12 | 2.46 ± 0.11
52 | SPERFATLGIDPPKGIL [RPT1] | 2.74 ± 0.066 | 2.76 ± 0.058 | 2.42 ± 0.078 | 2.77 ± 0.045
53 | ALKTSIQHVGMINGRKL [FAS1] | 3.21 ± 0.12 | 3.21 ± 0.1 | 3.25 ± 0.067 | 3.19 ± 0.083
54 | KDSLDNTFVTRLNNVFV [RPS4A] | 3.02 ± 0.11 | 3.02 ± 0.078 | 2.95 ± 0.085 | 2.95 ± 0.062
55 | KLVTNVVDPKTSIEKSS [YML103C/NUP188] | 2.31 ± 0.056 | 2.71 ± 0.049 | 2.52 ± 0.069 | 2.62 ± 0.051
